Source: patent US20090068234A1 (US Dept. of Health and Human Services, published 2009)

Biological target: OFA alone (control OFA construct, not fused to a chemoattractant) (murine, UniProt P14206 1-295)
Experiment: ligand binding-internalization assay on iDC, flow cytometry (data not shown)
Method: The ligand binding-internalization assays were performed with iDC or splenocytes (1×10⁵) blocked with mouse serum in PBS containing 2% BSA. Fusion proteins (10-50 μg/ml) were incubated in complete medium for Ih at 37° C. or at 4° C. To detect bound proteins, the cells were incubated with anti-c-myc mAb or isotype-matched, purified mouse IgG1, followed with α-mouse Ig-FITC mAb incubation (Jackson ImmunoResearch Laboratory, Bar Harbor, Me.) for 20 min each, and then fixed with 1% paraformaldehyde. The binding-internalization was assessed via flow cytometry on a FACScan (Becton Dickinson, Franklin Lakes, N.J.) using CellQuest software.

binding result: no binding
B1: CCR6 expressed on murine BM iDC (receptor)
chain: MNSTESYFGTDDYDNTEYYSIPPDHGPCSLEEVRNFTKVFVPIAYSLICVFGLLGNIMVVMTFAFYKKARSMTDVYLLNMAITDILFVLTLPFWAVTHATNTWVFSDALCKLMKGTYAVNFNCGMLLLACISMDRYIAIVQATKSFRVRSRTLTHSKVICVAVWFISIIISSPTFIFNKKYELQDRDVCEPRYRSVSEPITWKLLGMGLELFFGFFTPLLFMVFCYLFIIKTLVQAQNSKRHRAIRVVIAVVLVFLACQIPHNMVLLVTAVNTGKVGRSCSTEKVLAYTRNVAEVLAFLHCCLNPVLYAFIGQKFRNYFMKIMKDVWCMRRKNKMPGFLCARVYSESYISRQTSETVENDNASSFTM
notes: whole, on cells
